Measurements as given in US6416758B1 (Board of Regents, The University of Texax System, priority 1999, dated 2002).

Key:
[1] = GUS enzymatic activity; type: biochemical
From the text: The 6-His GUS was pure based upon SDS-PAGE, where it ran as a single band of 75 kDa band. On gel filtration columns, the 6-His GUS runs as a tetramer of about 300 kDa.

[2] = Blood clearance of radioiodinated 2C3-GUS; type: in vivo, mouse; details: 125I-labelled, intravenous injection into mice
Procedure: 2C3-GUS was radioiodinated with ^125I to a specific activity of 5×10^6 cpm/μg. After intravenous injection into mice, the radioiodinated 2C3-GUS cleared from the blood with a t½α of about 6 hours and a t 1/2β of about 25 hours.

[3] = system: human NCI-H358 NSCLC tumors; experiment: In vivo localization of 2C3-GUS; set-up: species or system mouse; details: SCID mice bearing s.c. NCI-H358
[4] = system: NCI-H358 NSCLC; experiment: Growth inhibition of newly-implanted NCI-H358 xenografts; type: in vivo, mouse; details: 100 μg i.p. 2 times per wk from day 1, nu/nu mice
Procedure: (§1) FIG. 3A and FIG. 3B. […] FIG. 3A: 1×10^7 NCI-H358 NSCLC cells were injected subcutaneously into nu/nu mice on day 0. FIG. 3B: 5×10^6 A673 rhabdomyosarcoma cells were injected subcutaneously into nu/nu mice on day 0. Mice were injected i.p. with the indicated IgG on day 1 and 2 times/week thereafter. […] Tumors were measured 2-3 times per week. Mean and standard error is shown for the duration of the study in FIG. 3A, while data for the last day of the study (day 26) is shown in FIG. 3B.
(§2) Nu/nu mice were injected subcutaneously with either 1×10^7 NCI-H358 NSCLC cells or 5×10^6 A673 rhabdomyosarcoma cells on day 0. […] The tumors were then measured twice per wk for a period of approximately six wk for the NCI-H358 bearing mice and four wk for the A673 bearing mice. Tumor volume was calculated according to the formula: volume=L×W×H, where L=length, W=width, H=height.

[5] = system: A673 rhabdomyosarcoma; experiment: Treatment of established A673 tumors; type: in vivo, mouse; details: mice with established tumors
[6] = system: LS174T colon adenocarcinoma; experiment: Treatment of established LS174T tumors; type: in vivo, mouse; details: mice with established tumors
[7] = system: VEGF-mediated growth of ABAE cells; experiment: Endothelial cell growth assay (MTS); type: cell-based, bovine; details: Table 5
Procedure: ABAE cells were grown in the presence of the various indicated antibodies and 0.5 nM VEGF. Growth after 4 days was determined colorimetrically by the enzymatic conversion of MTS (Owen's reagent) to a yellow formazan. […] Background was determined by growing cells without VEGF or antibody and was subtracted from the control and sample wells.
Adult bovine aortic endothelial (ABAE) cells were plated into 96-well tissue culture plates at 1500 cells/well and grown in the presence of 0.5 nM human VEGF with the addition of the various sample and control antibodies. Control wells received media with or without VEGF.
After 4 days of incubation, the cells were quantified by an MTS (3-(4,5-dimethylthiazol-2-yl)-5-(3-carboxylmethoxyphenyl)-2-(4-sulfophenyl)-2H-tetrazolium, inner salt) conversion assay, where MTS conversion to a formazan is proportional to cell number and can be followed by absorbance at 490 nm (Cell Titer 96 AQueous One Solution Cell Proliferation Assay, Promega, Madison, Wis.). The assay was performed according to the manufacturer's instructions.
Cell growth was estimated by subtracting the MTS conversion in cultures to which VEGF was not added. Results were expressed as a percentage of the MTS conversion in control cultures to which only VEGF was added (Buttke et al., 1993).

[8] = system: A673 rhabdomyosarcoma; experiment: Growth inhibition of newly-implanted A673 xenografts; type: in vivo, mouse; details: 100 μg i.p. 2 times per wk from day 1, nu/nu mice
Procedure: as §1, §2

[9] = target: T1, denatured VEGF121 and VEGF165 (Homo sapiens, UniProt P15692); experiment: Western blot analysis; type: binding; details: reducing and non-reducing conditions
T1 sequence (P15692 27-191 isoform P15692-4): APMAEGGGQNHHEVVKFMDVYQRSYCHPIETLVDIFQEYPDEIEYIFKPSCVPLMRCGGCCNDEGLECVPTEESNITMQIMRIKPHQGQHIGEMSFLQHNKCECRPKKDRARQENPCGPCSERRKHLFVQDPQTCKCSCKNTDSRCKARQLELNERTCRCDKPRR
Procedure: The nitrocellulose membrane was blocked using Sea-Block PP82-41 (East Coast Biologics, Berwick, Me.), and probed with primary antibodies using a mini-blotter apparatus (Immunetics, Cambridge, Mass.). The membranes were developed after incubation with the appropriate peroxidase-conjugated secondary antibody by ECL enhanced chemiluminescence.
Western blot analyses of anti-VEGF antibodies were conducted by separating VEGF165 in the presence of 5% FCS using SDS-PAGE on a 12% gel and analyzing by a standard western blotting protocol using ECL detection. The primary antibodies were incubated with the nitrocellulose membrane using a multi-lane mini-blotter apparatus.

[10] = system: VEGFR1 (Flt-1/Fc); experiment: ELISA, VEGF binding to VEGFR1-coated wells; details: Table 5
Procedure: (§3) FIG. 2. […] The plate was then incubated with rabbit anti-VEGF (A-20, Santa Cruz Biotechnology, Inc.) at 1 μg/ml and developed using a peroxidase conjugated goat anti-rabbit antibody. Assays were performed in triplicate. Mean percent binding in the absence of antibody is shown, together with the standard deviation.
(§4) The assay was also performed by coating wells of a microtiter plate with either control or test IgG.

[11] = system: VEGFR2 (KDR/Flk-1; sFlk-1); experiment: ELISA, VEGF binding to VEGFR2-coated wells; set-up: species or system mouse
Procedure: as §3, §4

[12] = system: NCI-H358 NSCLC and HT29 colon adenocarcinoma xenografts and normal organs; experiment: In vivo localization to human tumor xenografts in mice
Procedure: Tumors were grown subcutaneously in immunocompromised mice (NCI-H358 NSCLC in nu/nu mice and HT29 colon adenocarcinoma in SCID mice) until the tumnor volume was approximately 1 cm^3. 100 μg of unlabeled antibody for studies using SCID mice, or 100 μg of biotinylated antibody for studies using nude mice, was injected intravenously via a tail vein. Twenty four hours later, the mice were anesthetized, perfused with PBS, and tumnor and organs including heart, lungs, liver, kidneys, intestines and spleen were collected and snap frozen in liquid nitrogen.
The tumor and organs from each mouse were sectioned on a cryostat and stained for antibody immunohistochemically as above, with the exception that sections from the nude mice were developed using peroxidase labeled streptavidin-biotin complex (Dako, Carpinteria, Calif.) and the sections from the SCID mice were developed using two peroxidase-conjugated secondary antibodies, a goat anti-mouse IgG+IgM followed by a rabbit anti-goat IgG.
100 μg of GV39M and 3E7 or isotype-matched control IgG were injected into SCID mice bearing HT29 human colonic adenocarcinomas. Twenty-four hours later, the mice were sacrificed, exsanguinated and the tumors and tissues were removed. Frozen sections of the tumors and tissues were analyzed immunohistochemically to determine the binding and distribution of the antibodies (Table 4).

[13] = system: NCI-H358 NSCLC tumors; experiment: Treatment of established NCI-H358 xenografts; type: in vivo, mouse
Procedure: FIG. 4. […] Mean tumor volume along with the SEM over 116 days is shown.
(§5) FIG. 5A and FIG. 5B. […] Treatments (T) were 100 μg of the IgG given i.p., except for the initial treatment that consisted of 500 μg of the IgG given i.v. Mean tumor volume along with the SEM is shown. At the end of the study (day 116), the mice were sacrificed and the tumors dissected out and weighed. […] The mice were treated every other day as indicated (T). […] Mean tumor volume along with the SE is shown.
(§6) Male nu/nu mice bearing subcutaneous NCI-H358 tumors or HT1080 fibrosarcoma 200-400 mm^3 in size were injected i.p. with test or control antibodies. The NCI-H358 bearing mice were treated with 100 μg of antibodies per injection three times a week during the first week and twice a week during the second and third week. The mice were then switched to 50 μg per injection every five days. The HT1080 bearing mice were treated with 100 μg of the indicated antibody or saline every other day throughout the duration of the study. In both studies, mice were sacrificed when their tumors reached 2500 mm^3 size or earlier if tumors began to ulcerate.
Doses were 50-100 μg every 3-5 days. […] In addition to measuring mean tumor volume (FIG. 4), photographs of the mice from each treatment group were also taken to show the differences in tumor size and appearance at the end of the study.

[14] = system: HT1080 fibrosarcoma; experiment: Treatment of established HT1080 xenografts; type: in vivo, mouse; details: 100 μg i.p. every other day
Procedure: as §5, §6

[15] = target: T2, VEGF alone or VEGF associated with sFlk-1 (VEGF:Flk-1) (Homo sapiens, UniProt P15692); experiment: Indirect and capture ELISA, VEGF alone vs VEGF associated with sFlk-1; type: binding
T2 sequence (P15692 27-191 isoform P15692-4): T1 sequence (P15692 27-191 isoform P15692-4)
Procedure: The Flk-1/SEAP protein was produced and purified as described by Tessler et al. (1994). Basically, the extracellular domain of Flk-1(sFlk-1) was produced in Spodoptera frugiperda (Sf9) cells and purified by immunoaffinity techniques utilizing a monoclonal anti-Flk-1 antibody (1A8). sFlk-1 was then biotinylated and bound on avidin-coated plates.
The reactivity was determined as described above for the initial screening.
A capture ELISA was also developed. In the capture ELISA, microtiter plates were coated overnight at 4° C. with 100 ng of the indicated antibody. […] Streptavidin conjugated to peroxidase (Kirkegaard & Perry Laboratories, Inc.), diluted 1:2000, was used as a second layer and developed.

[16] = 24 hours after i.v. antibody, 2C3 in NCI-H358/nu/nu, 3E7 and GV39M in HT29/SCID mice

## 2C3-GUS [Clone 2C3-GUS]
[1]
  Enzymatic activity of GUS: retained enzymatic activity
[2]
  t 1/2β, clearance from the blood: about 25 hours
  t½α, clearance from the blood: about 6 hours
[3]
  Localization in tumor after i.v. injection: specifically localized to tumor vasculature and surrounding tumor stroma
  Staining of normal tissues after i.v. injection: unstained

## 2C3: anti-VEGF monoclonal antibody, IgG2a,k, hybridoma ATCC PTA 1595; blocks VEGF binding to VEGFR2 but not VEGFR1 [Clone 2C3]
[4]
  Final tumor volume, NCI-H358 NSCLC: approximately 150 mm^3
[5]
  Effect on growth of established A673 tumors: significantly slowed the growth
[6]
  Effect on growth of established LS174T tumors: significantly slowed the growth
[7]
  Blocks VEGF-induced proliferation: Yes
[8]
  Final tumor volume, A673 rhabdomyosarcoma: approximately 150 mm^3
[9]
  Reactivity with VEGF on western blots: react
[10]
  Blocks VEGF from binding to VEGFR1: No
[11]; 100-1000 fold excess
  Blocking of VEGF binding to VEGFR2 in ELISA: blocked
[11]; 100 fold molar excess over VEGF
  Reduction in VEGF binding to VEGFR2: about 74%
[11]; 1000-fold molar excess over VEGF (1 nM VEGF)
  VEGF bound to VEGFR2-coated wells, % of the amount bound in the absence of antibody: ~19%
[11]; 1000 fold molar excess over VEGF
  Reduction in VEGF binding to VEGFR2: about 81%
[11]; Table 5
  Blocks VEGF from binding to VEGFR2: Yes
[12]; [16]
  Immunohistochemical Reactivity, Heart: −
  Immunohistochemical Reactivity, Intestine: −
  Immunohistochemical Reactivity, Kidney: −
  Immunohistochemical Reactivity, Liver: −
  Immunohistochemical Reactivity, Lung: −
  Immunohistochemical Reactivity, Spleen: −
  Immunohistochemical Reactivity, Tumor: 3+
[12]; CT connective tissue, BV blood vessels
  In vivo tumor localization pattern: Moderate to strong
[12]; HT29
  Localization in the HT29 human tumor model: localized strongly to the connective tissue
[12]; mouse, in vivo
  In vivo normal mouse tissue localization: None detectable
[12]; mouse, in vivo, iv
  Structure specifically bound after i.v. injection: tumor stroma
[13]; FIG. 5A study, 100 μg, at start 480 mm^3 (2C3), 428 mm^3 (3E7)
  Mean tumor volume after approximately 14 wk of treatment: 84 mm^3
[13]; FIG. 5A study, approximately 14 wk
  Decrease in mean tumor volume: approximately 80%
[13]; FIG. 5A study, day 116
  Mean tumor weight at the end of the study: 0.054 g
[13]; established tumors 300-450 mm^3, 50-100 μg i.p. every 3-5 days, approximately 10 weeks of treatment
  Mean tumor volume at the end of the study, % of the initial mean tumor volume: 30%
[14]
  Effect on growth of HT1080 tumors: arrested the growth of the tumors
[15]
  Predominant Reactivity: VEGF
